Data on two molecules can be found in patent publication US20190322750A1 (Y BIOLOGICS, published 2019).

In experiment [1] the target is M1. As to the kind of experiment: ELISA on coated antigen, column M1. How it is done: (§1) An antigen PD-L1 wild type (WT) or several mutants were coated at a density of 100 ng/well on a 96-well immunoplate at 4° C. for 16 hours and the wells were blocked with 4% skim milk dissolved in PBS. Each well was washed with 0.2 ml of PBS/T, and then a single clone scFv-phage (each […]) cultured for 16 hours was added in a dose of 100 μl to each well and reacted at room temperature for 2 hours. Again, each well was washed 4 times with 0.2 ml of PBS/T, and then the second antibody, anti-Fab, was diluted to 1/2000 and reacted at room temperature for 1 hour. After washing with 0.2 ml of PBS/T, color development was performed and absorbance was measured at 490 nm.
On the technique in general: An ELISA detects its analyte on a solid surface through an enzyme-linked reagent.

For experiment [2], the target named is M8. As to the kind of experiment: ELISA on coated antigen, column M8. How it is done: as §1
In experiment [3] the target is M5. As to the kind of experiment: ELISA on coated antigen, column M5. How it is done:
as §1

The target in experiment [4] is T1, WT (human, UniProt Q9NZQ7).
T1 construct: recombinant; also called hPD-L1; antigen PD-L1 wild type (WT)
T1 sequence (Q9NZQ7 19-238 limits assumed): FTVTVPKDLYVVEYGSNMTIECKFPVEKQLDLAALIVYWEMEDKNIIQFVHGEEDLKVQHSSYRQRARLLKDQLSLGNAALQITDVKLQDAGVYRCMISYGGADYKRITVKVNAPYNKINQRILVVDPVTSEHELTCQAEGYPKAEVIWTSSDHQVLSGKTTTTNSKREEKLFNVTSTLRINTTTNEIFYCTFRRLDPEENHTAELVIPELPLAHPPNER
As to the kind of experiment: ELISA on coated antigen, column WT. How it is done:
as §1

In experiment [5] the target is M7. As to the kind of experiment: ELISA on coated antigen, column M7.
In experiment [6] the target is M2. As to the kind of experiment: ELISA on coated antigen, column M2. How it is done:
as §1

For experiment [7], the target named is T2, human PD-L1 over-expressed on HEK293E cells (human, UniProt Q9NZQ7 19-290).
T2 construct: whole, on cells; also called human PD-L1 (NM_014143.2)
T2 sequence (Q9NZQ7 19-290): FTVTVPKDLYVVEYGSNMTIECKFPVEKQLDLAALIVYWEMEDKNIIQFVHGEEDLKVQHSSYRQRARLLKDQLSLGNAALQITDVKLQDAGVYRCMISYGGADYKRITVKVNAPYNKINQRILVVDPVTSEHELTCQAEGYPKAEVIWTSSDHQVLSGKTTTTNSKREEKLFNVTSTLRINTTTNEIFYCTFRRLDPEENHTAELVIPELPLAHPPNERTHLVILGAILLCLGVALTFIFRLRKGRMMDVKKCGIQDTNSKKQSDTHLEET
As to the kind of experiment: flow cytometry (Geometric Mean) on HEK293E cells over-expressing human PD-L1, serial dilution. How it is done:
Then, the cells were washed three times with PBS (#LB001-02, Welgene) containing 2% fetal bovine serum and reacted at 4° C. for 20 minutes with an anti-human IgG antibody (#FI-3000, Vectorlabs) conjugated with a FITC (fluorescein isothiocyanate) fluorescent substance. Then, the cells were subjected to the same washing process as above and then suspended in 0.5 ml of PBS containing 2% FBS (#26140-079, Thermo Fisher) with an FACSCanto II flow cytometer (BD Biosciences, USA) as a flow cytometer.

Experiment [8] concerns the target M6. As to the kind of experiment: ELISA on coated antigen, column M6. How it is done:
as §1

Experiment [9] deals with T3, ITGA6.
T3 construct: unrelated antigen column; all antibodies give 0.5 to 0.6
T3 sequence (P23229 whole entry, species assumed, looked up): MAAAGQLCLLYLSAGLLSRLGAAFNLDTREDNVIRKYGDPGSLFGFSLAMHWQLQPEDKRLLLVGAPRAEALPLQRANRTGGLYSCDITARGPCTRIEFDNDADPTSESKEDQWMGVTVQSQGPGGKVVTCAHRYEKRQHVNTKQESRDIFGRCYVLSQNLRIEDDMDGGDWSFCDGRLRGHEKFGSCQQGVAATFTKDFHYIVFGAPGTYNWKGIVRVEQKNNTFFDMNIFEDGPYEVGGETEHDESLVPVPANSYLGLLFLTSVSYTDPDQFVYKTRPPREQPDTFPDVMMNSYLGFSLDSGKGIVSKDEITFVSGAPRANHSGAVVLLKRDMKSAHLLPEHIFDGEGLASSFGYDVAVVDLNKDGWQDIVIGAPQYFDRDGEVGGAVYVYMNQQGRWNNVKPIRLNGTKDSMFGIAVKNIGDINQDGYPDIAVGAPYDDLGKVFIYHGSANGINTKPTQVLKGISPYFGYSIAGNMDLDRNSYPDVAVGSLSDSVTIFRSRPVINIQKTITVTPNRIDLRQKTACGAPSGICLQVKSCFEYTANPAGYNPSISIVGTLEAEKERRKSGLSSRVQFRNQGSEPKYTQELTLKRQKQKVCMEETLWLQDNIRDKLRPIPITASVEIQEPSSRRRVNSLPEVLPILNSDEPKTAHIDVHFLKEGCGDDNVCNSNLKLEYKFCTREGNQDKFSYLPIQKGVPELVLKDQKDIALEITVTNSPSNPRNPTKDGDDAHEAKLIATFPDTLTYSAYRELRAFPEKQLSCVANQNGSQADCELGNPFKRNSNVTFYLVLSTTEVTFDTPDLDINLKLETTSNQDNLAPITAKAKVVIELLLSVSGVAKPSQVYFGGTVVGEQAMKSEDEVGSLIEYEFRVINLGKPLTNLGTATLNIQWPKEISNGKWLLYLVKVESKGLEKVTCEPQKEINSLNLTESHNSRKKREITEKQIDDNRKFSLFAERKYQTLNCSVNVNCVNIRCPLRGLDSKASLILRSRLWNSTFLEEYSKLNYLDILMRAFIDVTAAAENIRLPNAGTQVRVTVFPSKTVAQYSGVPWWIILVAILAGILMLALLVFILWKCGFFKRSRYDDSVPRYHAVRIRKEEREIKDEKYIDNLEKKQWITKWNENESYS
As to the kind of experiment: ELISA on coated antigen, column ITGA6.

In experiment [10] the target is T4, PD-L1-hFc (human, UniProt Q9NZQ7 19-238).
T4 construct: extracellular domain; Made in HEK-293F cells, protein A purified; also called PD-L1 antigen; PD-L1 protein
T4 sequence (Q9NZQ7 other isoform, or with tags, fused parts or gaps limits assumed): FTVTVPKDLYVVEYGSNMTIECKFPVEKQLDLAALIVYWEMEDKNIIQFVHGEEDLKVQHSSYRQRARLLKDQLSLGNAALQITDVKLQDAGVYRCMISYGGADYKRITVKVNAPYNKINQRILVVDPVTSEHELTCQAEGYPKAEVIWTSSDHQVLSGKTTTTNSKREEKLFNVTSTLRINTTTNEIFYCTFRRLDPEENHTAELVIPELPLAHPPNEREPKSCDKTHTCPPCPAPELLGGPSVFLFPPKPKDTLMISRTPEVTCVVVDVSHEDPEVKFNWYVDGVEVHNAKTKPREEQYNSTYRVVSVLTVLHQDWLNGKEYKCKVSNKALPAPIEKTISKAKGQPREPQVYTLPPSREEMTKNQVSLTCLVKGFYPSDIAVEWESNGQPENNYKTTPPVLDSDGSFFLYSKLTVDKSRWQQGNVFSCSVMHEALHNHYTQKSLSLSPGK
As to the kind of experiment: kinetics on PD-L1-hFc (legend paragraph 40; text names ProteOn XPR36, the sheet's sensorgrams have a nm axis).

For experiment [11], the target named is T5, PD-L1 on CHO cell line highly expressing PD-L1 (PD-1/PD-L1 blockade bioassay kit, promega J1250) (UniProt Q9NZQ7 19-290, limits assumed). As to the kind of experiment: cell-based or functional assay.
T5 sequence (Q9NZQ7 19-290 limits assumed): as the sequence (Q9NZQ7 19-290) above
The target in experiment [12] is T4, PD-L1-hFc. As to the kind of experiment: SPR (ProteOn XPR36), PD-L1-hFc immobilised on GLC chip, antibody 30 nM to 0.123 nM as analyte. How it is done:
A ProteOn XPR36 (BioRad) instrument was used. The GLC sensor chip (BioRad) was mounted on the instrument and washed with PBST buffer, and the carboxymethyldextran surface was activated with an EDC/sulfo-NHS mixed solution. PD-L1-hFc dissolved at a concentration of 5 ug/ml in a 10 mM sodium acetate buffer solution (pH 5.0) was injected and immobilized on the GLC sensor chip.
In order to deactivate the activated carboxyl groups that remain unreacted with the PD-L1 protein, 1 M ethanolamine was flowed and 10 mM glycine (pH 2.0) was injected in order to wash proteins that remain unbound to the sensor chip.
The equilibrium dissociation constant (KD) was calculated by plotting and fitting the sensogram data in the equilibrium state depending on concentration.

In experiment [13] the target is M4. As to the kind of experiment: ELISA on coated antigen, column M4. How it is done:
as §1

The target in experiment [14] is M3. As to the kind of experiment: ELISA on coated antigen, column M3.
Experiment [15] has as its target T5, PD-L1 on CHO cell line highly …. As to the kind of experiment: cell-based or functional assay. The source holds these as a separate data set.
Experiment [16] concerns the target T6, PD-L2-Fc (human, UniProt Q9BQ51).
T6 construct: recombinant Fc fusion; also called human PD-L2-Fc (#10292-H02H, Sino)
T6 sequence (ligand-Fc, looked up): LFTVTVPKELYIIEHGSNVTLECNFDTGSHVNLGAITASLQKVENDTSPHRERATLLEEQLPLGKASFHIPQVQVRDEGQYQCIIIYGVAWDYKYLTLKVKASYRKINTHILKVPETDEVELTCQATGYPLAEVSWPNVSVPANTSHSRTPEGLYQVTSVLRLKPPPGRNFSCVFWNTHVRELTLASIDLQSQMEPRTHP
As to the kind of experiment: ELISA on coated PD-L2-Fc (2.5 and 5 ug/well), OD450nm.

Experiment [17] concerns the target T7, PD-L1-His (human, UniProt Q9NZQ7).
T7 construct: recombinant, His-tagged; also called human PD-L1-His (S1479, Y-Biologics)
As to the kind of experiment: competition ELISA: PD-L1-His pre-incubated with the antibody, then on coated PD-1-Fc (blocked ligand); % of max absorbance.

The EC50 is the concentration needed to bring the measured effect to its halfway point. The Kd is the equilibrium constant for the complex coming apart. A word on the koff: it is a measure of how fast the partners let go of each other. A higher koff goes with fast dissociation. Broadly, the kon is the second-order rate constant of association. A higher kon goes with fast association. The IC50 is the concentration needed to halve the response being measured.

T7 sequence (Q9NZQ7 19-238 limits assumed): as the sequence (Q9NZQ7 19-238 limits assumed) above

B1: PDL1-16E12 (antibody, V domains shown)
VH: QMQLVQSGAEVKKPGSSVKVSCKASGGTFSSYAISWVRQAPGQGLEWMGRIIPILGIANYAQKFQGRVTITADKSTSTAYMELSSLRSEDTAVYYCAKPRDGYNLVAFDIWGQGTMVTVSS
VL: QLVLTQPPSVSGAPGQTVTISCTGSSSNIGAGYDVHWYQQLPGTAPKLLIYGNNNRPSGVPDRFSGSKSGALASLAITGLQAEDGADYHCQSYDNSLSAHAVFGTGTKVTVL
notes: Only FR/CDR pieces are tied to the clone; also called parent antibody
As to B1, the “absorbance at 490 nm” value in [1] came to 2.4; in experiment [2], 2.6; in experiment [3] it was 2.4; in experiment [4], 2.5; in experiment [5] it was 2.5; in [6], 2.3. Moreover, the “absorbance at 490 nm” value in experiment [8] was determined as 2.5; in experiment [9], 0.5; in [13] it was 0.4; in [14], 0.9. The EC50 in experiment [7] is 1.72 nM; in experiment [11] it was 0.909 nM. For the same molecule, the values for the Kd in experiment [10] and in experiment [12] were 0.043 nM and 0.045 nM, respectively. This molecule also registered a koff in experiment [10] of 1.43e-05 s⁻¹. Moreover, the kon in experiment [10] stood at 334000 M⁻¹ s⁻¹.

B2: PD-L1-16E12-LS-4F5 (Kappa) (antibody, V domains shown)
VH: QMQLVQSGAEVKKPGSSVKVSCKASGGTFSSYAISWVRQAPGQGLEWMGRIIPILGIANYAQKFQGRVTITADKSTSTAYMELSSLRSEDTAVYYCAKPRDGYNLVAFDIWGQGTMVTVSS
VL: QLVLTQPPSVSGAPGQRVTISCTGSSSNIGAGYDVHWYQQLPGAAPKLLIYGDINRPSGVPDRFSGSKSGISASLAITGLQAEDEADYYCQSYDSSLSGGVFGGGTKLTVL
In the case of B2, in experiment [15], the “Average *EC50 [nM], PD-1/PD-L1 blockade bioassay” value was 0.25 nM. Besides, the binding result in experiment [16] is reported as “no binding (tested: 1.0 ug/ml)”. The same molecule registered a half-inhibitory concentration (IC50) in experiment [17] of 7.66 nM.
